These results are taken from US20240417462A1 (SHANGHAI CELGEN BIO PHARMACEUTICAL, published 2024).

Like-named read-outs stand apart in the source and are kept apart here.

In assay [1] the target is T1, recombinant human TIGIT (Human TIGIT His, Sino Biological, 10917-H08H) (human, UniProt Q495A1 22-138).
T1 construct: range 1-138; bought; also called hTIGIT
T1 sequence (looked up): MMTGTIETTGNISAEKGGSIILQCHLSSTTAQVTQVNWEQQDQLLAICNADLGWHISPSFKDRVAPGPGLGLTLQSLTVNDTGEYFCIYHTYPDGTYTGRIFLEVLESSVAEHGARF
In words: ELISA, coated human TIGIT-His.

Assay [2] addresses T1, recombinant human TIGIT (Human TIGIT …). In words: BLI, antibody captured on anti-human Fc probe, TIGIT-His in solution.
Assay [3] addresses T2, full-length human TIGIT expressed on CHO-K cell membrane (CHO-K-TIGIT) (human, UniProt Q495A1 22-244).
T2 construct: whole, on cells; also called CHO-TIGIT; membrane TIGIT
T2 sequence (looked up): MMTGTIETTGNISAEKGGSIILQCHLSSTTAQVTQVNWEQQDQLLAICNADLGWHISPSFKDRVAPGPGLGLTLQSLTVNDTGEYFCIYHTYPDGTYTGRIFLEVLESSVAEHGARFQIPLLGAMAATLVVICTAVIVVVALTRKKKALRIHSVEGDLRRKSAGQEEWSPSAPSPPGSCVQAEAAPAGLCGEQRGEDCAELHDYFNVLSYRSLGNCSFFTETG
The experiment in a line: flow cytometry, CHO-TIGIT cells.

Assay [4] deals with T1, recombinant human TIGIT (Human TIGIT …). In words: competition ELISA on recombinant human TIGIT, CD155 as competitor.
For assay [5] the target is unchanged. In words: ELISA, recombinant human TIGIT (His) coated, anti-human-Fc-AP, OD405/490. How it is done: Antigen hTIGIT (Human TIGIT (His), Sino Biological, 10917-H08H) was diluted into 1 μg/mL with a NaHCO₃ solution of pH 9.6, 50 μl per well was added to a 96-well ELISA plate, and placed overnight in refrigerator at 4° C.
In order to determine whether the humanized TIGIT monoclonal antibody of the present disclosure could bind to the recombinant human TIGIT protein, in vitro testing was performed. Murine antibodies and Tiragolumab (Tira) were used as positive controls. The experimental method was the same as in Example 3.1.

For assay [6] the target is unchanged. The experiment in a line: BLI, antibody captured on anti-human Fc probe, TIGIT-His in solution. This is another data set of the same source.
In assay [7] the target is T3, recombinant cynomolgus monkey TIGIT (cynomolgus monkey, UniProt A0A7N9I9V4 89-209).
T3 construct: construct not described; also called cynomolgus TIGIT
The experiment in a line: ELISA, recombinant cynomolgus TIGIT coated, anti-mouse Fab secondary antibody, TMB, OD450/655nm. How it is done: (§1) The cynomolgus monkey or mouse TIGIT antigen of was coated with the same method as above, the anti-human TIGIT mouse monoclonal antibody was diluted in gradient, and then the anti-mouse Fab secondary antibody was added (Jackson Immuno Research, 515-035-072) for TMB development. ELISA was used to detect the binding of 8 mouse monoclonal antibodies to recombinant cynomolgus monkey TIGIT.

The target of another assay is T4, mouse TIGIT antigen (mouse, UniProt P86176 29-148, limits assumed).
T4 construct: construct not described; also called murine TIGIT
T4 sequence (looked up): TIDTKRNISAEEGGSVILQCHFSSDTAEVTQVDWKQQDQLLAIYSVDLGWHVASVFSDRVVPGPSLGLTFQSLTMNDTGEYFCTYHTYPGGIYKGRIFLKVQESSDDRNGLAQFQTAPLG
In words: ELISA, coated mouse TIGIT. How it is done:
as §1

In assay [8] the target is T1, recombinant human TIGIT (Human TIGIT …). In words: competition ELISA, coated TIGIT-His, CD155-Fc as competitor. How it is done:
In order to evaluate the competition between the anti-human TIGIT mouse monoclonal antibody and CD155 (Human CD155 (Fc Tag): Sino Biological, 10109-H02H) for binding to recombinant human TIGIT (Human TIGIT(His), Sino Biological, 10917-H08H), ELISA detection was performed, and the specific steps were as follows:
Primary antibody incubation: the plate was washed twice with PBS (250 μl/well), and patched dry. 6 μg/ml of CD155 was respectively diluted in a binding solution and added into a 96-well dilution plate at 60 μl/well. Then the screened hybridoma antibody was diluted with the binding solution, (the highest concentration was 30 μg/ml), and diluted to 3 times of concentration, and added into the corresponding dilution plate above at 60 μl/well. After mixing well, the sample was added to the coated 96-well ELISA plate at 100 μl/well. The plate was sealed with a sealing film and placed at 37° C. for 1.5 hours.
Secondary antibody incubation: the blocking solution was discarded, the plate was washed with 250 μl PBST for 3 times, and patched dry.

T3 sequence (A0A7N9I9V4 entry or part of it): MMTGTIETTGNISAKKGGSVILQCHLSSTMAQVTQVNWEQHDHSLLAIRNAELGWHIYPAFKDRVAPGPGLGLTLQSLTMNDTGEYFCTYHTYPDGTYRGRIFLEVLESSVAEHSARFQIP

B1: humanized anti-human TIGIT monoclonal antibody P03478 (antibody, V domains shown)
VH: EVQVVESGGGLVKPGGSLRLSCAASGFTFSTYAMSWVRQAPGKGLEWVAEISSGGSHTFYSDTVTGRFTISRDNAKNTLYLQMNSLRAEDTAVYYCARKTLDYYALDYWGQGTTVTVSS
VL: DIQMTQSPSSVSASVGDRVTITCRASKSISKYLAWYQQKPGKAPKLLIYSGSRLQSGVPSRFSGSGSGTDFTLTISSLQPEDFATYYCQQHNEYPWTFGGGTKLEIK
In the case of B1, the EC50 in assay [1] was 0.161 nM. For the same molecule, in assay [2], the equilibrium dissociation constant (Kd) amounted to 10.1 nM, the koff was found to be 0.00714 s⁻¹ and the association rate constant (kon) stood at 707000 M⁻¹ s⁻¹. The EC50 in assay [3] came out at 2.58 nM. Also, the half-inhibitory concentration (IC50) in [4] was found to be 0.989 nM.

B2: humanized anti-human TIGIT monoclonal antibody P03481 (antibody, V domains shown)
VH: EVQVVESGGGLVKPGGSLRLSCAASGFTFSTYAMSWVRQAPGKGLEWVAEISSGGSHTFYADTVKGRFTISRDNAKNTLYLQMNSLRAEDTAVYYCARKTLDYYALDYWGQGTTVTVSS
VL: DIQMTQSPSSVSASVGDRVTITCRASKSISKYLAWYQQKPGKAPKLLIYSGSRLQSGVPSRFSGSGSGTDFTLTISSLQPEDFATYYCQQHNEYPWTFGGGTKLEIK
For the molecule B2, in assay [1], the 50% effective concentration (EC50) came to 0.122 nM. In addition, in assay [2], the Kd turned out to be 10 nM, the koff came out at 0.00666 s⁻¹ and the kon stood at 665000 M⁻¹ s⁻¹. For the same molecule, the midpoint of the response in [3], the EC50, lay at 2.82 nM. The half-maximal inhibitory concentration (IC50) in assay [4] is 0.62 nM.

B3: humanized anti-human TIGIT monoclonal antibody P03483 (antibody, V domains shown)
VH: EVQLVESGGGLVKPGGSLRLSCAASGFTFSTYAMSWVRQAPGKGLEWVAEISSGGSHTFYADTVTGRFTISRDNAKNTLYLQMNSLRAEDTAVYYCARKTLDYYALDYWGQGTTVTVSS
VL: DVQITQSPSSVSASVGDRVTINCRASKSISKYLAWYQQKPGKAPKLLIYSGSRLQSGVPSRFSGSGSGTDFTLTISSLQPEDFATYYCQQHNEYPWTFGGGTKLEIK
Consider B3, for which, in [1], the 50% effective concentration (EC50) turned out to be 0.212 nM. In addition, in assay [2], the Kd was determined as 7.77 nM, the off-rate constant (koff) was determined as 0.0046 s⁻¹ and the kon was 592000 M⁻¹ s⁻¹. For the same molecule, in assay [3], the half-maximal effective concentration (EC50) is 2.61 nM. Further, in [4], the IC50 was determined as 0.836 nM.

B4: humanized anti-human TIGIT monoclonal antibody P03480 (antibody, V domains shown)
VH: EVQVVESGGGLVKPGGSLRLSCAASGFTFSTYAMSWVRQAPGKGLEWVAEISSGGSHTFYADTVKGRFTISRDNAKNTLYLQMNSLRAEDTAVYYCARKTLDYYALDYWGQGTTVTVSS
VL: DVQITQSPSSVSASVGDRVTINCRASKSISKYLAWYQQKPGKAPKLLIYSGSRLQSGVPSRFSGSGSGTDFTLTISSLQPEDFATYYCQQHNEYPWTFGGGTKLEIK
Take B4: the EC50 in assay [1] was determined as 0.252 nM. In [2], the Kd was found to be 6.67 nM, the koff is 0.00404 s⁻¹ and the association rate constant (kon) was found to be 605000 M⁻¹ s⁻¹. The molecule also returned a 50% effective concentration (EC50) in [3] of 2.19 nM. The IC50 in [4] was determined as 1.24 nM.

B5: humanized anti-human TIGIT monoclonal antibody P03482 (antibody, V domains shown)
VH: EVQLVESGGGLVKPGGSLRLSCAASGFTFSTYAMSWVRQAPGKGLEWVAEISSGGSHTFYADTVTGRFTISRDNAKNTLYLQMNSLRAEDTAVYYCARKTLDYYALDYWGQGTTVTVSS
VL: DVQITQSPSYLSASVGDRVTINCRASKSISKYLAWYQQKPGKAPKLLIYSGSRLQSGIPSRFSGSGYGTDFTLTISSLQPEDFATYYCQQHNEYPWTFGGGTKLEIK
For B5, the 50% effective concentration (EC50) in [1] was 0.182 nM. Moreover, in assay [2], the Kd worked out at 6.15 nM, the off-rate constant (koff) was found to be 0.00406 s⁻¹ and the on-rate (kon) was 661000 M⁻¹ s⁻¹. Also, the EC50 in assay [3] was 2.38 nM. In [4], the half-maximal inhibitory concentration (IC50) worked out at 0.791 nM.

B6: humanized anti-human TIGIT monoclonal antibody P03487 (antibody, V domains shown)
VH: QVQLVQSGAEVKKPGASVKVSCKASGYTFISYNIYWVRQAPGQGLEWIGGVNPSNGNTNFNENFKSRVTLTVDKSISTAYMELSRLRSDDTAVYYCTRGNYYGYEFAYWGQGTTVTVSS
VL: DIQMTQSPSSMSASVGDRVTITCKASQHVSTAVAWYQQKPGKAPKLLIYSPSYRYTGVPSRFSGSGSGTDFTFTISSVQPEDIATYYCQQHYSTPWTFGGGTKLEIK
B6: the concentration for a half-maximal effect (EC50) in assay [1] turned out to be 0.532 nM. For the same molecule, the EC50 in assay [5] stood at 0.0794 mg/L. Also, in [6], the Kd stood at 1.43 nM, the koff came to 0.000804 s⁻¹ and the kon came to 562000 M⁻¹ s⁻¹.

B7: humanized anti-human TIGIT monoclonal antibody P03486 (antibody, V domains shown)
VH: QVQLVQSGAEVKKPGASVKLSCKASGYTFISYNIYWVRQAPGQGLEWIGGVNPSNGNTNFNENFKSRATLTVDKSSSTAYMELSRLRSDDTAVYFCTRGNYYGYEFAYWGQGTTVTVSS
VL: DIQMTQSPSSMSASVGDRVTITCKASQHVSTAVAWYQQKPGKAPKLLIYSPSYRYTGVPSRFSGSGSGTDFTFTISSVQPEDIATYYCQQHYSTPWTFGGGTKLEIK
As to B7, the concentration giving a half-maximal response (EC50) in assay [1] came out at 0.511 nM. The half-maximal effective concentration (EC50) in [5] was found to be 0.0763 mg/L. For the same molecule, in assay [6], the Kd worked out at 1.14 nM, the dissociation rate constant (koff) came out at 0.000584 s⁻¹ and the kon turned out to be 511000 M⁻¹ s⁻¹.

B8: anti-human TIGIT mouse monoclonal antibody 7103-02 (antibody, V domains shown)
VH: EVQLQQSGPELVKPGASVKMSCKASGYTITSYVMHWVKQKPGQGLEWIGYINPYNDGTKYNEKFKGKATLTSDKSSSTAYMELSSLTSEDSAVYYCARWNPYYYAMDYWGQGTSVTVSS
VL: EVVLTQSPAITAASLGQKVTITCSANSSARYVHWYQQKSGTSPKPWIYEISKLASGVPARFSGSGSGTSYSLTISSMGAEDAAIYYCQQWNYPLITFGAGTKLEIK
notes: also called 37C6-1-1
For the molecule B8, in assay [1], the EC50 is 0.0987 nM. Besides, the binding result (in assay [7]; in the assay with mouse TIGIT antigen) was “no binding” each time. Besides, in [8], the concentration for half-maximal inhibition (IC50) is 0.13 nM.

B9: anti-human TIGIT mouse monoclonal antibody 7103-05 (antibody, V domains shown)
VH: EVQLQQSGPALVKPGASVKISCKTSEYTFTEYTMYWVKQSHGKSLEWIGGINPNNGGTRYNQKFKGKATLTVDKSSSTAYMELRSLTSEDSAVYYCARGGHYDYGFAYWGQGTLVTVSA
VL: DIVMTQSHKFMSTSVGDRVSITCKASQDVKTAVAWYQQKPGQSPKVLIYSPSYRYTGVPDRFTGSGSGTDFTFTISSVQAEDLAVYYCQQHYSTPWTFGGGTKLKSK
notes: also called 41D7-2-1
Turning to B9, in assay [1], the EC50 was 0.0571 nM. The binding result (in assay [7]; with mouse TIGIT antigen) was “no binding” each time. Besides, the half-maximal inhibitory concentration (IC50) in [8] stood at 0.169 nM.

B10: anti-human TIGIT mouse monoclonal antibody 7103-08 (antibody, V domains shown)
VH: EVQLQESGPELVKPGASVKISCKASGYSFTGYYMLWVKQSHVKSLEWIGRINPYNGATTYNQNFKDKASLTVNKSSSTAYMELHSLTSEDSAVYYCARWFGDFDFWGQGTTLTVSS
VL: DIQMTQSPSSLSASLGERVSLTCRASQEISGYLSWLQQKPDGTIKRLIYATSTLDSGVPKRFSGSRSGSDYSLTISSLESEDFADYYCLQYASYPFTFGSGTKLEIK
notes: also called 49F8-1-2
In the case of B10, the concentration for a half-maximal effect (EC50) in assay [1] was 0.0372 nM. Moreover, the binding result (in assay [7]; with mouse TIGIT antigen) was “no binding” throughout. Further, the half-maximal inhibitory concentration (IC50) in [8] was 0.0857 nM.
